Data from patent US6582902B1, “Method for deriving epitopes” (priority 1992, dated 2003).

System: g10-reactive antibodies (anti-g10 serum)
Assay: Competition for immunoprecipitation of [35S] g10-U1-A fusion protein by anti-g10 serum
Type: binding, rabbit
Excerpt: Panel A: Western blot of E. coli extracts containing various U1-A protein constructs. All extracts were produced from induced E. coli cells containing recombinant pET-8c T7 expression vectors in accordance with known techniques. See F. Studier et al., Meth. Enzym. 185, 60-89 (1991). U1-A cDNA was cloned into pET-8c either attached or not attached to the g10 peptide. Lanes: 1, 5 and 9: the pET-8c vector alone; 2, 6 and 10: g10-U1-A protein; 3, 7 and 11: U1-A protein; 4, 8 and 12: total HeLa cell extracts. Lanes 1-4 were probed with pre-immune rabbit serum; lanes 5-8 were probed with anti-g10 serum; and lanes 9-12 were probed with a U1/U2-specific autoimmune serum (patient). EW reacts with U1 RNA, U1-70K (70 kDa), U1-A (31 kDa) and U2-A′ (28.4 kDa) (lane 12). Panel B: Immunoprecipitation and competition analysis of [^35S]-methionine-labeled U1-A and g10-U1-A proteins expressed by in vitro transcription, and subsequent translation in rabbit reticulocyte lysates. Lanes: 1 and 2 show the amount of U1-A and g10-U1-A translation product, respectively, added to each immunoprecipitation reaction; 3: blank; 4 and 5: U1-A and g10-U1-A precipitated with serum EW (reactive with U1-A); 6 and 7: U1-A and g10-U1-A, respectively, precipitated with anti-g10 serum. In lanes 8-12, g10-U1-A was precipitated with anti-g10 serum in the presence of varying amounts of competitors as follows: lanes 8-11 contained the g10 peptide at concentrations of 27.8, 83.3, 250 and 750 nM, respectively; lane 12 contained a control peptide (sequence GKSRGFAFVEFK-amide) (SEQ ID NO:4) at a concentration of 25 mM. The faint lower band in all lanes represents either a degradation product or a premature translation termination product and is seen consistently in U1-A translations.
[^32P] labeled in vitro transcribed D10 RNA or [^35S] labeled in vitro translated g10 fusion protein (g10-U1A) was immunoprecipitated by the anti-g10 serum in the presence of various competitors. D10 RNA and g10 fusion protein bound in the immunoprecipitations were analyzed using denaturing polyacrylamide gels and autoradiography. […]

B1: D10 RNA: single RNA species selected from the degenerate pool by anti-g10 serum (SEQ ID NO:3); U1 stem II with loop UGGUGGAGCA (nucleic acid)
chain: GGGCCACCAACGACAUUGGGCGAGGCUUAUCCUGGUGGAGCAGGAUGUGCUGACCCCGUUGAUAUAAAUAGUGCCCAUGGAUC
modifications: chemistry not given here
notes: U1 stem II with loop UGGUGGAGCA
competition with g10 fusion protein for binding to the antibody (FIG. 5C, 0.7 nM competitor RNA): able to compete
competition with [35S] labeled g10 fusion protein, increasing amounts of competitor (FIG. 5D, 0.0175-1.05 nM D10 RNA): able to progressively compete
